Reference: publication doi:10.1101/2020.07.19.211243
Several values for one entry are separate records, joined by “and”; a condition that tells them apart may be missing. Equal values may be shown once. Read-outs that look alike come from different tables or passages of the source.

Assays:
Assay in all cases: SDS-PAGE
[1] = target: Daphnia pulex (water flea) sarcolamban peptide (Daphnia pulex)
[2] = target: Daphnia pulex (water flea) sarcolamban peptide (Daphnia pulex); remark: listed apart in the source
[3] = target: Triops cancriformis (tadpole shrimp) sarcolamban peptide (Triops cancriformis)

| stoichiometry N [1] | stoichiometry N [2] | stoichiometry N [3] | Substance |
| --- | --- | --- | --- |
| 3 and 4 and 5 | 2 |  | Daphnia pulex (water flea) sarcolamban peptide |
|  |  | 2 | Triops cancriformis (tadpole shrimp) sarcolamban peptide |
